Assay results as given in the supplement of paper PMC9112550, “Optimization of the antimicrobial peptide Bac7 by deep mutational scanning” (BMC Biology, 2022).

Tested on: Escherichia coli TOP10
Experiment: shrunken log2 fold change of peptide-encoding DNA abundance (4.5 h post-induction vs induction); higher = less antimicrobial activity (less host growth inhibition)
Settings: time post-induction: 4.5 h; library: site-saturation at positions 5, 18, 19, 20
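Note: peptides expressed intracellularly from a pBAD plasmid library in pooled LB shake-flask culture, induced with 0.3% L-arabinose, DNA abundance read by NGS, three biological replicates, DESeq2 with apeglm shrinkage.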

Sequence | shrunken log2 fold change
RRIRKRPPRLPRPRPRPCSIPRP | 0.11
RRIRLRPPRLPRPRPRPSPCPRP | -0.252
RRIRDRPPRLPRPRPRPMIHPRP | 0.318
RRIRHRPPRLPRPRPRPMNKPRP | -0.329
RRIRGRPPRLPRPRPRPKNAPRP | 1.91
RRIRQRPPRLPRPRPRPPKDPRP | 0.0238
RRIRVRPPRLPRPRPRPVGRPRP | 0.542
RRIRSRPPRLPRPRPRPEQPPRP | 0.591
RRIRCRPPRLPRPRPRPSSCPRP | -0.211
RRIRLRPPRLPRPRPRPCIDPRP | -0.166
RRIRYRPPRLPRPRPRPMALPRP | -0.142
RRIRYRPPRLPRPRPRPNAAPRP | 0.216
RRIRGRPPRLPRPRPRPFKIPRP | 0.0381
RRIRCRPPRLPRPRPRPCKGPRP | 0.035
RRIRCRPPRLPRPRPRPWHKPRP | -0.256
RRIRERPPRLPRPRPRPAKTPRP | -0.244
RRIRRRPPRLPRPRPRPWMEPRP | -0.137
RRIRKRPPRLPRPRPRPANAPRP | 0.426
RRIRNRPPRLPRPRPRPNGQPRP | -0.0686
RRIRHRPPRLPRPRPRPRPLPRP | 0.255
RRIRLRPPRLPRPRPRPNLQPRP | -0.0904
RRIRKRPPRLPRPRPRPGTDPRP | -0.165
RRIRKRPPRLPRPRPRPSVEPRP | 0.0133
RRIRCRPPRLPRPRPRPNTHPRP | -0.499
RRIRQRPPRLPRPRPRPMTKPRP | -0.0865

Sequence | shrunken log2 fold change
RRIRTRPPRLPRPRPRPKPPPRP | 0.353
RRIRARPPRLPRPRPRPFHLPRP | -0.36
RRIRVRPPRLPRPRPRPNPDPRP | -0.0161
RRIRMRPPRLPRPRPRPTNDPRP | 0.231
RRIRMRPPRLPRPRPRPELTPRP | 3.52
RRIRDRPPRLPRPRPRPISRPRP | -0.032
RRIRMRPPRLPRPRPRPTNLPRP | -0.0631
RRIRCRPPRLPRPRPRPFCEPRP | 0.000102
RRIRMRPPRLPRPRPRPEPMPRP | 0.386
RRIRKRPPRLPRPRPRPVGSPRP | 0.178
RRIRRRPPRLPRPRPRPFYTPRP | -0.327
RRIRLRPPRLPRPRPRPITKPRP | 0.00247
RRIRLRPPRLPRPRPRPMCAPRP | 0.0321
RRIRTRPPRLPRPRPRPPSKPRP | -0.326
RRIRKRPPRLPRPRPRPSEYPRP | -0.026
RRIRHRPPRLPRPRPRPYWLPRP | -0.85
RRIRNRPPRLPRPRPRPTMCPRP | -0.0233
RRIRTRPPRLPRPRPRPPIWPRP | 0.477
RRIRSRPPRLPRPRPRPGPMPRP | 0.34
RRIRIRPPRLPRPRPRPKAMPRP | -0.161
RRIRMRPPRLPRPRPRPLQEPRP | 2.68
RRIRMRPPRLPRPRPRPLCAPRP | 1.24
RRIRVRPPRLPRPRPRPNGHPRP | -0.0787
RRIRVRPPRLPRPRPRPVPKPRP | 0.128
RRIRWRPPRLPRPRPRPMHYPRP | -0.107

Sequence | shrunken log2 fold change
RRIRQRPPRLPRPRPRPEEPPRP | 0.0685
RRIRRRPPRLPRPRPRPWSNPRP | -0.226
RRIRKRPPRLPRPRPRPKGDPRP | -0.0351
RRIRHRPPRLPRPRPRPEATPRP | 0.0573
RRIRGRPPRLPRPRPRPDEYPRP | 0.168
RRIRPRPPRLPRPRPRPDYDPRP | -0.252
RRIRQRPPRLPRPRPRPQPHPRP | 0.158
RRIRHRPPRLPRPRPRPMIHPRP | -0.382
RRIRYRPPRLPRPRPRPTDAPRP | -0.0292
RRIRPRPPRLPRPRPRPVIYPRP | -0.063
RRIRARPPRLPRPRPRPQRFPRP | 0.0296
RRIRKRPPRLPRPRPRPKRAPRP | 1.04
RRIRDRPPRLPRPRPRPIFEPRP | 0.419
RRIRERPPRLPRPRPRPWEVPRP | -0.17
RRIRQRPPRLPRPRPRPAMFPRP | 0.0399
RRIRYRPPRLPRPRPRPPAAPRP | 0.454
RRIRSRPPRLPRPRPRPSLEPRP | 0.0147
RRIRTRPPRLPRPRPRPMYAPRP | -0.121
RRIRDRPPRLPRPRPRPKFHPRP | -0.362
RRIRTRPPRLPRPRPRPIHPPRP | -0.389
RRIRMRPPRLPRPRPRPKWLPRP | 0.612
RRIRRRPPRLPRPRPRPWLNPRP | -0.0295
RRIRDRPPRLPRPRPRPSQNPRP | 0.113
RRIRDRPPRLPRPRPRPKFEPRP | -0.0187
RRIRERPPRLPRPRPRPRQWPRP | -0.0536
